Here are results for one molecule from patent publication US20250215104A1.

The target in assay [1] is T1, human suPAR (hsuPAR) recombinant protein (human), Q03405. Description: BLI (Octet Red96E), WAb0014 on AHC sensor, hsuPAR captured, vitronectin as analyte (in the presence of WAb0014). Background: Biolayer interferometry detects binding as a change in optical thickness at a sensor tip.
The target of assay [2] is T1, human suPAR (hsuPAR) recombinant …. Kind of assay: BLI, with WAb0014 against without. The following applies: remark: other sources report otherwise.
The target is the same in assay [3]. Kind of assay: BLI (Octet Red96E), hsuPAR 2 µg/mL on streptavidin sensor, vitronectin as analyte.

T1 sequence (Q03405 23-303): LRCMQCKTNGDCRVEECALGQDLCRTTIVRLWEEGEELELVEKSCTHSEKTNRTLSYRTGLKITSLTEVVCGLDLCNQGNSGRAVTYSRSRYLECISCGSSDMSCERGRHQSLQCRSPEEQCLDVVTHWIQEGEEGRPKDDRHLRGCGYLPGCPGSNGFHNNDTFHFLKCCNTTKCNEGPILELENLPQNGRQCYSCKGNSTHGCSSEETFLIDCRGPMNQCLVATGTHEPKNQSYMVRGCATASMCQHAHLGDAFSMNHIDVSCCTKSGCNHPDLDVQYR

B1: vitronectin, P04004 20-478 (ligand)
chain: DQESCKGRCTEGFNVDKKCQCDELCSYYQSCCTDYTAECKPQVTRGDVFTMPEDEYTVYDDGEEKNNATVHEQVGGPSLTSDLQAQSKGNPEQTPVLKPEEEAPAPEVGASKPEGIDSRPETLHPGRPQPPAEEELCSGKPFDAFTDLKNGSLFAFRGQYCYELDEKAVRPGYPKLIRDVWGIEGPIDAAFTRINCQGKTYLFKGSQYWRFEDGVLDPDYPRNISDGFDGIPDNVDAALALPAHSYSGRERVYFFKGKQYWEYQFQHQPSQEECEGSSLSAVFEHFAMMQRDSWEDIFELLFWGRTSAGTRQPQFISRDWHGVPGQVDAAMAGRIYISGMAPRPSLAKKQRFRHRNRKGYRSQRGHSRGRNQNSRRPSRATWLSLFSSEESNLGANNYDDYRMDWLVPATCEPIQSVFFFSGDKYYRVNLRTRRVDTVDPPYPRSIAQYWLGCPAPGHL
For orientation: Kd means the equilibrium constant for the complex coming apart. With B1, the Kd in assay [1] was determined as 62.2 nM; in assay [3] it was 13.5 nM. For the same molecule, the fold reduction in affinity in the presence of WAb0014 in assay [2] was found to be 5 fold.
